Results on two molecules are retold here after patent US20070128190A1 (GLENMARK PHARMACEUTICALS S A, published 2007).

Assay [1] addresses T1, GST-cynomolgus α2 I domain fusion protein of Example 18 (sequence identical to the human I domain) (cynomolgus monkey, UniProt P17301 153-368 (human entry)).
T1 construct: also called GST-cynomolgous-α2 I domain fusion protein; not shown: glutathione S-transferase tag, vector not restated
T1 sequence: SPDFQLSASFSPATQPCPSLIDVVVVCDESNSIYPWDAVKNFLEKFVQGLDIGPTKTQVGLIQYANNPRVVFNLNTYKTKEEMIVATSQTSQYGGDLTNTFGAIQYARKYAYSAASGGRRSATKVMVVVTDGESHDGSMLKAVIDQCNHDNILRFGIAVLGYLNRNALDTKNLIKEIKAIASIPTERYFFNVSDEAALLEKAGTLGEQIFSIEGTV
Kind of assay: SPR (Biacore 2000), antibody captured, GST-α2 I domain in solution.

For assay [2], the target named is T2, GST-human α2 I domain fusion protein (human, UniProt P17301 153-368).
T2 construct: the reverse primer ends at ...SIEGTV; also called GST-α2 I domain; hα2I; not shown: glutathione S-transferase tag encoded by vector pGEX-2TK
T2 sequence: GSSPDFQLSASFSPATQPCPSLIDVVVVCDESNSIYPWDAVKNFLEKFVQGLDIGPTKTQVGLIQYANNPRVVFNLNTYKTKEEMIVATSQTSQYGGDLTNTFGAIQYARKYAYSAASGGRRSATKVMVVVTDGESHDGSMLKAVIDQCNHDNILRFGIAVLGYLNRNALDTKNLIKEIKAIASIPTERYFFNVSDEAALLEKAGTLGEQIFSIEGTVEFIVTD
Kind of assay: SPR (Biacore 2000), antibody captured, GST-α2 I domain in solution; second Human row; second Human row of humanized TMC-2206. The text has this: SPR, a method for characterizing macromolecular interactions, is an optical technique that uses the […] phenomenon to exquisitely measure minute changes in refractive index very close to a sensor surface. The binding between an antigen in solution (e.g., fusion protein) and its MAb receptor (immobilized on the surface of a sensor chip) results in a change in refractive index. The interaction is monitored in real time and the amount of bound antigen and the association and dissociation rate constants can be measured with high precision. The equilibrium dissociation constant can be easily calculated from: KD=kd/kₐ=koff/kₒₙ. The cloning of the human α2 I domain and the purification of the expressed GST-human α2 I domain fusion protein was described in Example 12. Analyses were performed at 20° C. using a Biacore 2000 optical sensor with a research-grade CM5 sensor chip (Biacore Life Sciences, Uppsala, Sweden) and equilibrated with running buffer (50 mM HEPES, 150 mM NaCl, 0.25 mM MgCl₂, 0.25 mM CaCl₂, 0.5% Tween-20, 0.1 mg/ml BSA, pH 7.4). […] Each cycle of antigen (GST-human-α2 I domain fusion protein) binding to surface-tethered anti-mouse IgGs involved three steps. […] [The other two surfaces (one anti-mouse and one Protein A) served as analytic references.] In the second step, GST-human-α2 I domain fusion protein was injected across the four surfaces. Responses obtained from the reference surfaces (due to refractive index mismatches between the antigen and running buffer) were subtracted from the responses obtained from the reaction surfaces. In the third step, the antigen/antibody complexes were stripped from the surfaces such that the surfaces could be used for another binding cycle.

The target in assay [3] is T2, GST-human α2 I domain fusion protein. Kind of assay: Eu-TMC-2206 on immobilized GST-α2 I domain at 37 °C, Scatchard.
The target in assay [4] is T3, human platelet α2β1 integrin (immobilized on microtiter plates) (human, UniProt P17301 30-1181; P05556 21-798).
T3 construct: plates custom-coated with human platelet α2β1 by GTI Inc; also called immobilized α2β1 integrin; α2β1-coated plates
The experiment in a line: competition with Eu-TMC-2206 on human platelet α2β1-coated plate.

Assay [5] concerns the target T3, human platelet α2β1 integrin …. Kind of assay: equilibrium binding of Eu-TMC-2206 to human platelet α2β1-coated plate, Scatchard. As for the experimental part:
Wells in a 96 well microtiter plate were coated with platelet α2β1-integrin (custom-coated with human platelet α2β1 by GTI Inc., Wis.) and then blocked with nonfat milk. […] After concentration in prewashed MicroSep concentrators (30-kDa cutoff; Pall Life Sciences at 9500 rpm (7000×g) in a JA-20 rotor (Beckman Instruments, Inc.) for 20 minutes at 4° C.), antibodies were adjusted to 4.0 mg/mL with PBS containing a final concentration of 100 mM NaHCO₃, pH 9.3. The mAb/bicarbonate mixture (0.250 mL) was gently mixed into a vial containing 0.2 mg N¹-(p-isothiocyanatobenzyl)-diethylenetriamine-N¹,N²,N³N³-tetraacetic acid chelated with Eu³⁺ (Eu-N1-ITC; Perkin Elmer Life Sciences) and reacted overnight at 4° C. without stirring. Each labeled antibody mixture was applied to a separate PD-10 column (GE Biosciences, Piscataway, N.J.) pre-equilibrated with Running Buffer (50 mM Tris, pH 7.4 and 138 mM NaCl). Fractions (0.5 mL) were collected and assayed for total protein (Bradford reagent; Bio-Rad Laboratories, Hercules, Calif.) using a SpectraMax 384 absorbance plate reader and for europium after 1:10.000 dilution in DELFIA Enhancement Solution (Perkin-Elmer) by time-resolved fluorescence (TRF) using a Victor2 multi-label plate reader (Perkin Elmer). […]

T3 sequence (P17301 30-1181 E534K limits assumed, chain 1 of 2): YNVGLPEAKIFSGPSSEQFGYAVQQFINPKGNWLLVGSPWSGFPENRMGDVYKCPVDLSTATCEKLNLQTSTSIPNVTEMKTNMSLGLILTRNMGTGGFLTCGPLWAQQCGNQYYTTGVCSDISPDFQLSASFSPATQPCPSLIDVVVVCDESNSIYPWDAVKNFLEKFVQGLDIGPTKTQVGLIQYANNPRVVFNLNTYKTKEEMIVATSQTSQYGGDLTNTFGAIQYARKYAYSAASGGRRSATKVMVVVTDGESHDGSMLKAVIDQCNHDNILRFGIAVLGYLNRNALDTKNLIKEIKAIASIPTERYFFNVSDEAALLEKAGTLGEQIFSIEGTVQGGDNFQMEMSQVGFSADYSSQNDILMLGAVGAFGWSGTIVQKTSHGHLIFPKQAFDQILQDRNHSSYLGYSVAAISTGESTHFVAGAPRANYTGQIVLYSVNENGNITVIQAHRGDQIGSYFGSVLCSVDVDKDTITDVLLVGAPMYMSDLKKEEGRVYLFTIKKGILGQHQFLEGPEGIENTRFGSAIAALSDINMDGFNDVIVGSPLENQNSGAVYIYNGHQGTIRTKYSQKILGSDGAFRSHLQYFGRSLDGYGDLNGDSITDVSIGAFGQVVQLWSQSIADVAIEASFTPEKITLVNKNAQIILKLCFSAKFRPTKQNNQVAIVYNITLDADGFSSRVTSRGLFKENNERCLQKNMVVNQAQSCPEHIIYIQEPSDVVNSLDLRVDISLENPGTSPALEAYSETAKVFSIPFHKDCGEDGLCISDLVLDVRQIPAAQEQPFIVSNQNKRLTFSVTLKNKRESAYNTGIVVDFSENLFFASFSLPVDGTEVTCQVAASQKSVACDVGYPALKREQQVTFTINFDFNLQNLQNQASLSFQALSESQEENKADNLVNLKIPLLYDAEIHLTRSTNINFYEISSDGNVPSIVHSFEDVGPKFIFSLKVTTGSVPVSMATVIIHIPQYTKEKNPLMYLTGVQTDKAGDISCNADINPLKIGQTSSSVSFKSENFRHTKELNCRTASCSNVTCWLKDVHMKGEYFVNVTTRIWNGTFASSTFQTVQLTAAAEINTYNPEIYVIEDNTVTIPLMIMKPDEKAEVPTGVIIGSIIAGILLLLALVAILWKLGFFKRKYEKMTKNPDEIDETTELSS
T3 sequence (P05556 21-798 limits assumed, chain 2 of 2): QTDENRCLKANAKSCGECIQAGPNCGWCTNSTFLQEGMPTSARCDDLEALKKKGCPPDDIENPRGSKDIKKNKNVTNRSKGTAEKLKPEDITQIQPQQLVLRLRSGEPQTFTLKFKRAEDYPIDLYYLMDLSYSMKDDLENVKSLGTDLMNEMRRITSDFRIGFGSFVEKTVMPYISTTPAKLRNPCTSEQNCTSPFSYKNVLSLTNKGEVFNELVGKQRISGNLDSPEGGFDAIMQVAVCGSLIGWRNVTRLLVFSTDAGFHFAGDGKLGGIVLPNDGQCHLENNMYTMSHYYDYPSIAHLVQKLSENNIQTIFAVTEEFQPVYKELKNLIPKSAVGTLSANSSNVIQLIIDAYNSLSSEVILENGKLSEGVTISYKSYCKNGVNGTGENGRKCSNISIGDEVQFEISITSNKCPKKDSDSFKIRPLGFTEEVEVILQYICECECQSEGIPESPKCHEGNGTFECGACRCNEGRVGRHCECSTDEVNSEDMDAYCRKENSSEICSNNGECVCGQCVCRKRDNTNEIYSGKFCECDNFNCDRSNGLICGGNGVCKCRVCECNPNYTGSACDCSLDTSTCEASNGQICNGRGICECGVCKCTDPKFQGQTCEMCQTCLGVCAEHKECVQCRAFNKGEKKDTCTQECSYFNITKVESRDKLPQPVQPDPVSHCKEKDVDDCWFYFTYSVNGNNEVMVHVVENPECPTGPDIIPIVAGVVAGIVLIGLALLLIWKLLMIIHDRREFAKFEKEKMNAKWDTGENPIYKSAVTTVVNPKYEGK

B1: Humanized TMC-2206 (hIgG4/κ VH12.0/VL10.0Q) (antibody)
heavy: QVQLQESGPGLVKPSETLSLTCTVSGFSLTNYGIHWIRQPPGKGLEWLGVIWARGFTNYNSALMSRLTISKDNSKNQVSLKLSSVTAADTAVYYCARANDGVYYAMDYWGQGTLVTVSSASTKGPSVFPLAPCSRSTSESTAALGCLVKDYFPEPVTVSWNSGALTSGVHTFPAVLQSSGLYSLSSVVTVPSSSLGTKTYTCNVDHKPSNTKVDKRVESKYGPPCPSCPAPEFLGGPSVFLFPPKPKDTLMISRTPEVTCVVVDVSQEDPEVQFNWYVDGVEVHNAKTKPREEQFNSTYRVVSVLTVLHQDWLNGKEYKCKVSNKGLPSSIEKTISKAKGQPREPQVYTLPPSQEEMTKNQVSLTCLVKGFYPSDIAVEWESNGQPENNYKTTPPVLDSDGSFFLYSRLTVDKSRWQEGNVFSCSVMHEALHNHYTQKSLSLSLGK
light: DFVMTQSPAFLSVTPGEKVTITCSAQSSVNYIHWYQQKPDQAPKKLIYDTSKLASGVPSRFSGSGSGTDYTFTISSLEAEDAATYYCQQWTTNPLTFGQGTKVEIKRTVAAPSVFIFPPSDEQLKSGTASVVCLLNNFYPREAKVQWKVDNALQSGNSQESVTEQDSKDSTYSLSSTLTLSKADYEKHKVYACEVTHQGLSSPVTKSFNRGEC
notes: labelled with Eu or Alexa-488 in some assays
Take B1: in assay [1], the Kd was determined as 5 nM, the koff is 0.003 s⁻¹ and the kon turned out to be 500000 M⁻¹ s⁻¹. Besides, in assay [2], the affinity, expressed as Kd, was 4 nM; the koff was determined as 0.0024 s⁻¹; the kon was 580000 M⁻¹ s⁻¹.

B2: TMC-2206 (antibody, mouse IgG1, V domains shown)
VH: QVQLKESGPGLVAPSQSLSITCTVSGFSLTNYGIHWVRQPPGKGLEWLGVIWARGFTNYNSALMSRLIITKDNSQSQVFLKMNSLQPDDSATYFCARANDGVYYAMDYWGQGTSVTVSS
VL: QFVLTQSPAFLSASPGEKVTMTCSANSSVNYIHWYQQKSGTSPKKWIYDTSKLASGVPVRFSGSGSGTSYSLTISSMETEDAATYYCQQWTTNPLTFGAGTRVELK
notes: murine IgG1/κ secreted by hybridoma BHA2.1; labelled with Eu-N1-ITC where used as tracer; also called BHA2.1
As for B2, the figures for the Kd in assay [3] and in assay [5] were 0.2 nM and 0.374 nM, respectively. This molecule registered a Ki in assay [4] of 0.22 nM.
